Laboratory results reported in patent US20260055143A1, “HIGH AFFINITY VARIANTS OF SH2 DOMAINS” (Axoiya Inc., priority 2023, published 2026).

Target: SLTI{pTyr}AQVQKA (Homo sapiens, UniProt Q13291)
Assay: Competitive ELISA, SH2D1B variants
Format: binding

B1: SH2D1B: SH2D1B SH2 domain, SEQ ID 67 (protein, listed as Homo sapiens)
chain: YYHGRLTKQDCETLLLKEGVDGNFLLRDSESIPGVLCLCVSFKNIVYTYRIFREKHGYYRIQTAEGSPKQVFPSLKELISKFEKPNQGMVVHLLKPI
- change in affinity (superbinding grafts or the αA-2-Arg substitution): could not be improved further
- change in affinity (with either the sSrc or sFes graft): no improvement in affinity
